Results as given in the supplement of paper PMC10065799, “High-throughput profiling of sequence recognition by tyrosine kinases and SH2 domains using bacterial peptide display” (eLife, 2023).

Columns and labels:
SHP2-C SH2 = experiment: SH2 binding enrichment of the phosphorylated peptide, bacterial display (enrichment ratio); higher = better substrate or ligand; peptides without Tyr show the background
Grb2 SH2 = Grb2 SH2 (UniProt P62993); experiment: as above
c-Src SH2 = experiment: as above
MERTK = MERTK (UniProt Q12866); experiment: phosphorylation enrichment, bacterial display (enrichment ratio); higher = better substrate or ligand; peptides without Tyr show the background
AncSZ = experiment: as above
Jak2 = Jak2 (UniProt O60674); experiment: as above
Sequence of Jak2 (O60674 whole entry, looked up): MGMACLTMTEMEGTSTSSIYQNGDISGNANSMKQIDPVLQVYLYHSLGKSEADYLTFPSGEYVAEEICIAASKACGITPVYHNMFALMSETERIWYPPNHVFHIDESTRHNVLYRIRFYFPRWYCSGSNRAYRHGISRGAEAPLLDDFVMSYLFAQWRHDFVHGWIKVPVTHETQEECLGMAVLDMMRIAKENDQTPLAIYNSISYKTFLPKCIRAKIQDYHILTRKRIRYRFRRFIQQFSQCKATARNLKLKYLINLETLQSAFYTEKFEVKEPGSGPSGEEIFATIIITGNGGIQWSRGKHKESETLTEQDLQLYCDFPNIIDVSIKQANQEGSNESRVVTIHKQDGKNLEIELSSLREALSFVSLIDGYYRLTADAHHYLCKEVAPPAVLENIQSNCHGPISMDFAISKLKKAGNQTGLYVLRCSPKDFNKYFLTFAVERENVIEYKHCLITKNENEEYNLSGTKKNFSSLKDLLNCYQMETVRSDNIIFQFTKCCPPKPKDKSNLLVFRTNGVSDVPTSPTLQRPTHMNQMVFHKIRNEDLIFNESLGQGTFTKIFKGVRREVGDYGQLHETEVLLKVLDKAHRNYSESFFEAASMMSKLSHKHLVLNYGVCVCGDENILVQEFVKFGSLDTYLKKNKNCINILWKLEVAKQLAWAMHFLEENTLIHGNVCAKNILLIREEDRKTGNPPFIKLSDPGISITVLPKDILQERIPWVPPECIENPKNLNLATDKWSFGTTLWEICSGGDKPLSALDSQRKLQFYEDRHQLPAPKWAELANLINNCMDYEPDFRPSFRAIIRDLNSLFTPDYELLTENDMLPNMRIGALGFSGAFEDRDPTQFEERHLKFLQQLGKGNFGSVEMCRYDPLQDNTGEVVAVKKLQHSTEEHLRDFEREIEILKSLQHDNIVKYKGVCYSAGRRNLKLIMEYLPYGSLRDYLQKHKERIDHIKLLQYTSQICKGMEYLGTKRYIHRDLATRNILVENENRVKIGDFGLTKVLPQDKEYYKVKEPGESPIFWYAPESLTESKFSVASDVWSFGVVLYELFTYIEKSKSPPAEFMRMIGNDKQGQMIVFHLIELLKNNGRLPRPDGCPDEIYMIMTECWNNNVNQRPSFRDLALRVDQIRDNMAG

Fyn = Fyn (UniProt P06241); experiment: as above
Sequence of Fyn (P06241 whole entry, looked up): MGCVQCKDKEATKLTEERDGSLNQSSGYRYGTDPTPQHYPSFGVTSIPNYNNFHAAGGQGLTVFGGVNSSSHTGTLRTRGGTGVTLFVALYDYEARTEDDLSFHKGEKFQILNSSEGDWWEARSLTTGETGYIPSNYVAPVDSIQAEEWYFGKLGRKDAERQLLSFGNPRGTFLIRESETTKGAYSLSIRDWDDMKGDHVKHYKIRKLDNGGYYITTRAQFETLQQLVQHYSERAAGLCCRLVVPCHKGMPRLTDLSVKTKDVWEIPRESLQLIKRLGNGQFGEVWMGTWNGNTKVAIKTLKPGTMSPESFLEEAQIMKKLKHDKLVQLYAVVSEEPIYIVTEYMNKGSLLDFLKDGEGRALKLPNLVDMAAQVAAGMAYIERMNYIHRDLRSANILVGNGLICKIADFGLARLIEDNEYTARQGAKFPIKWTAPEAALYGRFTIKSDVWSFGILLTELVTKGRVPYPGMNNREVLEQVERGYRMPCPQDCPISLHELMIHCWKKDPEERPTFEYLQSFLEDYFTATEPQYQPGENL

c-Abl (mouse) = experiment: as above
FGFR1 = FGFR1 (UniProt P11362); experiment: as above
Sequence of FGFR1 (P11362 whole entry, looked up): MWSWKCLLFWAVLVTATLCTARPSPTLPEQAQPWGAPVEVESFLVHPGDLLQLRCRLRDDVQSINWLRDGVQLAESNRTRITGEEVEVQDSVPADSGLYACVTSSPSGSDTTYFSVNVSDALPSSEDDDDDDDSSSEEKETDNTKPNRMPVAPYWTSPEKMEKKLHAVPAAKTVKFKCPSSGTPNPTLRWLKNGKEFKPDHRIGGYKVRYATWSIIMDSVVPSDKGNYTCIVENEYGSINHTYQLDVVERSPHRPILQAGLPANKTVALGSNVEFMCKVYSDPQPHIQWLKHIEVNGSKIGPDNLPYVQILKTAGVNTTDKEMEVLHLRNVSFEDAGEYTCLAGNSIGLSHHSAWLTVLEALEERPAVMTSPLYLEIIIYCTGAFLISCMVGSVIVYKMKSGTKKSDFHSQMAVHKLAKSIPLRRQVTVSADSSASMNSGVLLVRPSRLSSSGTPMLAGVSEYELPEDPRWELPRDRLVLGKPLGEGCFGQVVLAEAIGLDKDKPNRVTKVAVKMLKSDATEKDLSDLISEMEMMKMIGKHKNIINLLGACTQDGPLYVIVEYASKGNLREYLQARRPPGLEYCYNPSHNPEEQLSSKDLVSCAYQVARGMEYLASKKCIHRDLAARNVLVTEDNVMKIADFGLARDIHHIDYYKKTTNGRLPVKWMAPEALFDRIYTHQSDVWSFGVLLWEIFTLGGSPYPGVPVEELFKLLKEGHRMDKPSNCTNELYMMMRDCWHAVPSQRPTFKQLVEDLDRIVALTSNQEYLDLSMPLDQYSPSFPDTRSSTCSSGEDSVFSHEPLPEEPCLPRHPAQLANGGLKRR

Fer (mouse) = experiment: as above
EPHB1 = EPHB1 (UniProt P54762); experiment: as above
c-Src = experiment: as above
Fes = Fes (UniProt P07332); experiment: as above
Hck = Hck (UniProt P08631); experiment: as above
EPHB2 = EPHB2 (UniProt P29323); experiment: as above
Sequence of EPHB2 (P29323 whole entry, looked up): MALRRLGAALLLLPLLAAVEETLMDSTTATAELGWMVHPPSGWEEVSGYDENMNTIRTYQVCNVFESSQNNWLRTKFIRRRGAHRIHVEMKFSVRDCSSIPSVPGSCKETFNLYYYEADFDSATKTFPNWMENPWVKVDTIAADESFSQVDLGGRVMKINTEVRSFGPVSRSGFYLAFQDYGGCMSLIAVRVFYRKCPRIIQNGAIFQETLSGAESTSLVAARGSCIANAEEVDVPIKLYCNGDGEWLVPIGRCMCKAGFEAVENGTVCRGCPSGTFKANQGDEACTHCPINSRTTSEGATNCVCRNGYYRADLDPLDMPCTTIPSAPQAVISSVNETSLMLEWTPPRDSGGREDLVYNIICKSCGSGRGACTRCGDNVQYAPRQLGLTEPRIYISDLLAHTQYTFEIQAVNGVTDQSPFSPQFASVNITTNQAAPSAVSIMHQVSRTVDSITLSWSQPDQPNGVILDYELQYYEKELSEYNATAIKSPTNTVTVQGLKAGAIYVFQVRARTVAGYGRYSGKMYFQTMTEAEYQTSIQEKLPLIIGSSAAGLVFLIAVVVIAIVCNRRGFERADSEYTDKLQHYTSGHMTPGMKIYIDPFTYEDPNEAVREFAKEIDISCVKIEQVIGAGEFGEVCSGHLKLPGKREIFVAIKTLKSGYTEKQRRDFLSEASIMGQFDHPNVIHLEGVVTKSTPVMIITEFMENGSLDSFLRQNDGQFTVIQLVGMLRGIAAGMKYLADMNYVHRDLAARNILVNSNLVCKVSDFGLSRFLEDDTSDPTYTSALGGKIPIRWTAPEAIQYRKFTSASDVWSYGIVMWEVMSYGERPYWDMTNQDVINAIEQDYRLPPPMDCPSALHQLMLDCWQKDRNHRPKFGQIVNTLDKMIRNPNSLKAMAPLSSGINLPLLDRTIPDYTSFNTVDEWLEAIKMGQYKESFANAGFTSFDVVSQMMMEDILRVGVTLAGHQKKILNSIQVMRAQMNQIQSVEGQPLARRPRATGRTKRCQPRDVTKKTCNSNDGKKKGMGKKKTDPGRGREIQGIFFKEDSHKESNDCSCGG

FGFR3 = FGFR3 (UniProt P22607); experiment: as above
Sequence of FGFR3 (P22607 whole entry, looked up, the tested form may be a part): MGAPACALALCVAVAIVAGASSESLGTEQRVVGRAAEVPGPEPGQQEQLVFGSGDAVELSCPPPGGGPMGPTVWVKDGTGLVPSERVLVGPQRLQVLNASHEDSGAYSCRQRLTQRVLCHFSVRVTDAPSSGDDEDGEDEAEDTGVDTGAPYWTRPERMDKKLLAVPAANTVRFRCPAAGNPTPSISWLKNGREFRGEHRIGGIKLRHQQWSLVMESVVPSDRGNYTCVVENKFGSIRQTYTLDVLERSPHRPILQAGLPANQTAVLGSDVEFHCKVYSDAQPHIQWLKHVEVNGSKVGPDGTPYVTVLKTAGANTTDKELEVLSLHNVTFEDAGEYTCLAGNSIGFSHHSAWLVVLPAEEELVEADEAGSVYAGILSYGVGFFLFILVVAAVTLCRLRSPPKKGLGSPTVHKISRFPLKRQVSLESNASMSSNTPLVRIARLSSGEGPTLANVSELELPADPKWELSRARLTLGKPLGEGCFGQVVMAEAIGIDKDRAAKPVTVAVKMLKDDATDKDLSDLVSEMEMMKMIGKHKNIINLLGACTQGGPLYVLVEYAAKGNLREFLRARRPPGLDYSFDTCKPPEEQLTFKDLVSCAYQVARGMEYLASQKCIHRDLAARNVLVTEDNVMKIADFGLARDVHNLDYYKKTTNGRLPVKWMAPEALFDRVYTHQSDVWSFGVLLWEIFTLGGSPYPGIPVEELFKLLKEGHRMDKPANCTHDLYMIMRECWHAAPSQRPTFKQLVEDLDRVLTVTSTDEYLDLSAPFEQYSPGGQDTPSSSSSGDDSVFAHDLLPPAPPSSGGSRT
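For SH2 binding enrichment of the phosphorylated peptide, bacterial display in this document: peptide library displayed on the E. coli surface as eCPX fusions, selected cells deep-sequenced, score is each peptide's frequency after selection divided by its frequency in the input.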
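For phosphorylation enrichment, bacterial display in this document: 11-residue human phosphosite peptides and single-mutation variants displayed on the E. coli surface, counted by deep sequencing, each peptide's frequency after selection divided by its frequency in the unselected input library; frequency after pTyr selection over input frequency; kinase dosed for 20-30% of maximal phosphorylation in three min.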

Sequence of Grb2 SH2 (P62993 whole entry, looked up): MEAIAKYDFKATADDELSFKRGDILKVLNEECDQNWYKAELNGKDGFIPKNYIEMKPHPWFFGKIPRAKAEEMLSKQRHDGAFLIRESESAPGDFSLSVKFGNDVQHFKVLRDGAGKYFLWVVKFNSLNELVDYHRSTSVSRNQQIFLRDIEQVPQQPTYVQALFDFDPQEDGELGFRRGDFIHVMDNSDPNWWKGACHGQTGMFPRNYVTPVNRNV

| Sequence | SH2 binding enrichment (SHP2-C SH2) | SH2 binding enrichment (Grb2 SH2) | SH2 binding enrichment (c-Src SH2) | phosphorylation enrichment (MERTK) | phosphorylation enrichment (AncSZ) | phosphorylation enrichment (Jak2) | phosphorylation enrichment (Fyn) | phosphorylation enrichment (c-Abl (mouse)) | phosphorylation enrichment (FGFR1) | phosphorylation enrichment (Fer (mouse)) | phosphorylation enrichment (EPHB1) | phosphorylation enrichment (c-Src) | phosphorylation enrichment (Fes) | phosphorylation enrichment (Hck) | phosphorylation enrichment (EPHB2) | phosphorylation enrichment (FGFR3) |
| --- | --- | --- | --- | --- | --- | --- | --- | --- | --- | --- | --- | --- | --- | --- | --- | --- |
| PAEPRYRARQR [KCNJ11_Y26] | 0.788 | 0.675 | 0.474 | 0.929 | 1.02 | 1 | 0.746 | 0.737 | 0.576 | 0.673 | 0.635 | 0.958 | 0.718 | 0.878 | 0.722 | 0.599 |
| HIAKVYRRDNP [HARS1_Y156] | 0.722 | 1.36 | 0.747 | 0.734 | 0.982 | 0.659 | 0.775 | 1.24 | 0.451 | 0.507 | 0.36 | 1.02 | 0.989 | 0.592 | 0.463 | 0.772 |
| GISDEYHVIWH [GCDH_Y398_R402W] | 0.521 | 0.789 | 0.568 | 0.391 | 2.07 | 1.34 | 0.837 | 0.818 | 7.06 | 0.649 | 1.46 | 1.09 | 1.17 | 1 | 1.1 | 4.61 |
| GVRTIYTIDGS [DCLK2_Y124] | 0.941 | 0.968 | 0.521 | 0.553 | 0.803 | 0.69 | 1.38 | 0.5 | 0.581 | 0.52 | 0.563 | 1.6 | 0.846 | 0.697 | 0.507 | 0.506 |
| SVTCTYSPALN [TP53_Y126] | 0.616 | 0.766 | 0.401 | 0.456 | 1.53 | 1.45 | 0.489 | 0.976 | 0.517 | 0.626 | 0.794 | 0.66 | 1.72 | 0.641 | 0.723 | 0.984 |
| LIDGYYRLTAD [JAK2_Y373] | 9.03 | 0.72 | 4.65 | 0.961 | 2.46 | 10.4 | 1.71 | 1 | 11.5 | 1.54 | 1.88 | 0.899 | 2.59 | 1.87 | 2.08 | 5.24 |
| REDVFYTSKLW [AKR1C2_Y81_I79V] | 0.729 | 0.807 | 0.511 | 1.3 | 1.52 | 1.41 | 0.89 | 1.25 | 0.742 | 0.422 | 0.759 | 0.662 | 1.45 | 0.802 | 0.631 | 1.05 |
| TYGVVYKARNK [CDK2_Y19] | 0.253 | 0.788 | 0.548 | 0.41 | 1.18 | 0.485 | 1.81 | 0.272 | 0.354 | 0.46 | 0.369 | 1.33 | 0.691 | 1.47 | 0.563 | 0.515 |
| KRLDGYVLEGW [IGSF9_Y656_R661W] | 0.819 | 0.844 | 2.36 | 0.381 | 0.712 | 0.651 | 0.484 | 0.532 | 0.542 | 0.506 | 0.48 | 0.418 | 0.835 | 0.453 | 0.484 | 0.511 |
| KDIENYIQDGK [RAD50_Y964] | 0.687 | 0.979 | 0.526 | 0.464 | 0.923 | 0.82 | 0.433 | 0.639 | 0.543 | 0.416 | 0.504 | 0.461 | 0.965 | 0.45 | 0.515 | 0.616 |
| VFFDLYGGEKF [PTPN11_Y66_D61V_YF] | 0.77 | 1.04 | 0.572 | 0.517 | 1.03 | 0.835 | 1.42 | 0.914 | 0.443 | 0.509 | 0.803 | 2.04 | 1.11 | 2.08 | 0.596 | 0.598 |
| FRKNIYNVKST [SYNE2_Y575_YF] | 0.927 | 1.18 | 0.723 | 0.335 | 0.469 | 0.384 | 0.398 | 0.39 | 0.357 | 0.348 | 0.385 | 0.355 | 0.439 | 0.251 | 0.378 | 0.355 |
| SEPDLYCDPRG [PKP1_Y160] | 0.93 | 1.03 | 0.563 | 1.46 | 2.48 | 1.23 | 1.95 | 1.31 | 1.94 | 2.37 | 4.34 | 2.17 | 1.15 | 5.26 | 3.01 | 1.45 |
| DSFATYFRRVL [H2BW1_Y84] | 0.584 | 0.797 | 0.373 | 0.448 | 1.35 | 1 | 0.472 | 0.798 | 0.496 | 0.426 | 0.607 | 0.532 | 1.2 | 0.82 | 0.677 | 0.703 |
| FKEDPYLVVNP [MCM6_Y810_E806K_YF] | 0.753 | 0.762 | 0.557 | 0.449 | 1.19 | 1.13 | 1.06 | 0.815 | 1.02 | 0.531 | 0.441 | 1.98 | 1.12 | 0.718 | 0.617 | 0.89 |
| NVPILYTASQA [CTNNA1_Y222] | 0.628 | 0.762 | 0.435 | 0.687 | 0.553 | 0.688 | 0.421 | 0.576 | 0.464 | 0.472 | 0.432 | 0.418 | 0.597 | 0.444 | 0.449 | 0.501 |
| AQQPIYIRVEG [NLRP7_Y318_V319I] | 0.614 | 1.03 | 0.591 | 0.641 | 1.12 | 0.955 | 0.525 | 0.725 | 0.652 | 0.588 | 1.3 | 0.793 | 1.18 | 0.733 | 1.2 | 0.702 |

| Sequence | SH2 binding enrichment (SHP2-C SH2) | SH2 binding enrichment (Grb2 SH2) | SH2 binding enrichment (c-Src SH2) | phosphorylation enrichment (MERTK) | phosphorylation enrichment (AncSZ) | phosphorylation enrichment (Jak2) | phosphorylation enrichment (Fyn) | phosphorylation enrichment (c-Abl (mouse)) | phosphorylation enrichment (FGFR1) | phosphorylation enrichment (Fer (mouse)) | phosphorylation enrichment (EPHB1) | phosphorylation enrichment (c-Src) | phosphorylation enrichment (Fes) | phosphorylation enrichment (Hck) | phosphorylation enrichment (EPHB2) | phosphorylation enrichment (FGFR3) |
| --- | --- | --- | --- | --- | --- | --- | --- | --- | --- | --- | --- | --- | --- | --- | --- | --- |
| KMLEKYKERLN [TLK2_Y259] | 0.641 | 0.838 | 0.693 | 0.475 | 0.634 | 0.834 | 0.43 | 1.27 | 0.46 | 0.444 | 0.381 | 0.463 | 0.789 | 0.492 | 0.5 | 0.557 |
| GGKFSYLKVGH [GRM3_Y480_YF] | 0.525 | 0.901 | 0.401 | 0.463 | 0.634 | 0.642 | 0.361 | 0.494 | 0.512 | 0.344 | 0.409 | 0.411 | 0.619 | 0.371 | 0.368 | 0.519 |
| KPLMPYMRFSR [SMARCE1_Y73_YF] | 0.831 | 0.838 | 0.412 | 0.479 | 1.3 | 0.843 | 0.591 | 0.99 | 0.466 | 0.352 | 0.385 | 0.508 | 0.872 | 0.493 | 0.464 | 0.547 |
| MFNPYYGLFEY [NEDD4L_Y680] | 1.64 | 1.56 | 1.75 | 7.1 | 2.18 | 7.13 | 7.66 | 5.87 | 8.53 | 7.76 | 7.89 | 5.76 | 2.16 | 7.23 | 9.35 | 7.3 |
| AFLEDYFTSTE [SRC_Y522] | 0.959 | 0.967 | 0.578 | 0.578 | 1.91 | 1.46 | 0.54 | 1.31 | 1.16 | 0.572 | 0.598 | 0.783 | 1.83 | 0.549 | 0.606 | 1.42 |
| THLARYSDELR [APOA1_Y190_P189R] | 0.622 | 0.96 | 0.554 | 0.494 | 0.653 | 0.543 | 0.539 | 0.405 | 0.437 | 0.616 | 0.32 | 0.397 | 0.645 | 0.4 | 0.412 | 0.449 |
| IPGRFYETGSI [PAX2_Y73_L69P_YF] | 0.803 | 0.841 | 1.11 | 0.415 | 0.733 | 0.662 | 0.492 | 0.552 | 0.635 | 0.357 | 0.441 | 0.549 | 0.723 | 0.517 | 0.858 | 0.614 |
| QKFMAYLSQGG [HLCS_Y236] | 1.17 | 1.23 | 0.877 | 0.517 | 0.839 | 0.945 | 1.2 | 0.446 | 0.466 | 0.487 | 0.731 | 0.542 | 0.745 | 0.738 | 0.803 | 0.64 |
| KTKLGYSPLHQ [ANK1_Y735] | 1.05 | 1.2 | 0.849 | 0.399 | 0.454 | 0.397 | 0.373 | 0.691 | 0.31 | 0.354 | 0.296 | 0.369 | 0.48 | 0.322 | 0.326 | 0.385 |
| KRAIGHYSATS [FAM120A_Y327_Y327H] | 0.564 | 1.12 | 0.778 | 0.355 | 0.459 | 0.439 | 0.346 | 0.474 | 0.319 | 0.356 | 0.305 | 0.434 | 0.498 | 0.312 | 0.286 | 0.423 |
| RRYLYYYSYLL [PTEN_Y177_V175L] | 0.712 | 0.973 | 0.686 | 5.8 | 1.13 | 3.29 | 0.816 | 1.02 | 1.74 | 1.24 | 1.13 | 1.68 | 1.75 | 1.17 | 0.91 | 1.93 |
| GHLYACDWISI [BEST1_Y227_Y227C] | 0.676 | 0.799 | 0.771 | 4.89 | 1.21 | 1.18 | 1.06 | 1.05 | 0.902 | 0.677 | 1.3 | 1.34 | 1.43 | 0.846 | 0.929 | 1.06 |
| TQPSPYAVYRF [RPGRIP1_Y823] | 1.04 | 0.847 | 1.7 | 8.69 | 0.912 | 0.898 | 11.5 | 22.2 | 0.794 | 9 | 1.22 | 10.1 | 0.834 | 7.95 | 1.84 | 0.795 |
| MARDISRASYY [ALK_Y1278_Y1278S] | 0.519 | 0.776 | 0.433 | 0.453 | 0.525 | 0.65 | 0.475 | 0.59 | 0.464 | 0.33 | 0.422 | 0.463 | 0.73 | 0.395 | 0.395 | 0.452 |
| RMSQRYRDVLQ [CYP1A2_Y72_G73R] | 0.548 | 0.719 | 0.495 | 0.522 | 1.11 | 0.905 | 0.593 | 0.769 | 0.484 | 0.396 | 0.422 | 0.745 | 1.08 | 0.66 | 0.719 | 0.549 |
| SEKISYVFMKR [SSX7_Y48_L43S_YF] | 0.906 | 0.681 | 0.386 | 0.378 | 1.25 | 1.05 | 0.436 | 0.822 | 0.52 | 0.458 | 0.599 | 0.412 | 1.32 | 0.46 | 0.597 | 0.75 |
